PMC5992148, “Molecular principles underlying dual RNA specificity in the Drosophila SNF protein”
Each block holds one binder with its values, some of them ahead of it.

Key:
dSNF1-96 (RRM1) [1] = target: T1, dSNF1-96 (RRM1) (Drosophila melanogaster, UniProt P43332 1-96); assay: ITC; 1 mM Mg2+, 10 C; n 0.894; ITC: 150 mM KCl, 1 mM MgCl2, 20 mM HEPES-NaOH pH 7.5, 5% glycerol, 10 C; NMR: 50 mM KCl, 20 mM sodium cacodylate pH 6.5, 2 mM EDTA, 23 C; filter binding: KCl varied, other conditions not stated; conditions: protein: recombinant; tags: N-terminal His6, TEV-cleaved; hairpin, 10-nt loop, 9-bp blunt stem
T1 sequence: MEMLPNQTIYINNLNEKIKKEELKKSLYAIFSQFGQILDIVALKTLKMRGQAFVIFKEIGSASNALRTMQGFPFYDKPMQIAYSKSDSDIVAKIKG

dSNF1-101 (RRM1) [2] = target: T2, dSNF1-101 (RRM1) (UniProt P43332 1-101); assay: filter binding; without dU2A'; ITC: 150 mM KCl, 1 mM MgCl2, 20 mM HEPES-NaOH pH 7.5, 5% glycerol, 10 C; NMR: 50 mM KCl, 20 mM sodium cacodylate pH 6.5, 2 mM EDTA, 23 C; filter binding: KCl varied, other conditions not stated; conditions: protein: recombinant; tags: none stated; label: 32P internal; hairpin
T2 sequence: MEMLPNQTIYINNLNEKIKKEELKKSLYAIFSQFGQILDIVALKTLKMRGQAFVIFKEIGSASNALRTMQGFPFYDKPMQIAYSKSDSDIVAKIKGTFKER

dSNF1-101 (RRM1) [3] = target: T2, dSNF1-101 (RRM1); assay: NMR chemical shift perturbation; 300 uM protein, 700 uM RNA; ITC: 150 mM KCl, 1 mM MgCl2, 20 mM HEPES-NaOH pH 7.5, 5% glycerol, 10 C; NMR: 50 mM KCl, 20 mM sodium cacodylate pH 6.5, 2 mM EDTA, 23 C; filter binding: KCl varied, other conditions not stated; conditions: protein: recombinant; tags: none stated; hairpin
dSNF1-96 (RRM1) [4] = target: T1, dSNF1-96 (RRM1); assay: ITC; 1 mM Mg2+, 10 C; n 0.781; ITC: 150 mM KCl, 1 mM MgCl2, 20 mM HEPES-NaOH pH 7.5, 5% glycerol, 10 C; NMR: 50 mM KCl, 20 mM sodium cacodylate pH 6.5, 2 mM EDTA, 23 C; filter binding: KCl varied, other conditions not stated; conditions: protein: recombinant; tags: N-terminal His6, TEV-cleaved; hairpin, 11-nt loop, U:G closing pair, blunt
dSNF1-96 (RRM1) [5] = target: T1, dSNF1-96 (RRM1); assay: crystal structure; 2.0 A; ITC: 150 mM KCl, 1 mM MgCl2, 20 mM HEPES-NaOH pH 7.5, 5% glycerol, 10 C; NMR: 50 mM KCl, 20 mM sodium cacodylate pH 6.5, 2 mM EDTA, 23 C; filter binding: KCl varied, other conditions not stated; conditions: protein: recombinant; tags: N-terminal His6, TEV-cleaved; hairpin, blunt, 10-nt loop
[6] = target: Drosophila U2A′ (dU2A′), triple cysteine variant, produced apart from dSNF (Drosophila melanogaster) (UniProt Q9V4Q8); assay: ITC; dU2A′ as the sample (2.5 µM), dSNF^1-101 as titrant (25 µM); 22 °C; 50 mM KCl, 100 mM arginine, 10 mM sodium cacodylate, pH 6.5 (methods) or pH 7 (results)

Binder: CCAGGACGCAUUGCACCUCGCGUCCUGG (structured_RNA) [dU1SLII (ITC)]
Kd (dSNF1-96 (RRM1) [1]): 34 nM

Binder: GGCCGGUAUUGCACUACCGCCGGGUCC (structured_RNA) [dU2SLIV G13C]
binding signal (dSNF1-101 (RRM1) [2]): 16 fold higher affinity than wt N6

Binder: GGCCGGUAUUGCAAUACCGCCGGGUCC (structured_RNA) [dU2SLIV G13A]
binding signal (dSNF1-101 (RRM1) [2]): 200 fold lower affinity than wt N6

Binder: GGCCGGUAUUACAGUACCGCCGGGUCC (structured_RNA) [dU2SLIV G10A]
binding signal (dSNF1-101 (RRM1) [2]): 1000 fold lower affinity than wt N6

Binder: GGCCGGCAUUGCACCACGCGCCGGGUCC (structured_RNA) [dU1SLII (T7, NMR)]
binding result (dSNF1-101 (RRM1) [3]): binds

Binder: CCAGGACGUAUUGCAGUACCGCGUCCUGG (structured_RNA) [dU2SLIV (ITC)]
Kd (dSNF1-96 (RRM1) [4]): 782 nM

Binder: GGCCGCAUUGCACCUCGCGGCC (structured_RNA) [dU1SLII 22-mer (crystal)]
binding result (dSNF1-96 (RRM1) [5]): binds

Kd [6]: 4.2 nM
dH [6]: -241 kcal/mol
B1: Drosophila melanogaster SNF RRM1, residues 1-101 (dSNF^1-101) (domain or fragment)
chain: MEMLPNQTIYINNLNEKIKKEELKKSLYAIFSQFGQILDIVALKTLKMRGQAFVIFKEIGSASNALRTMQGFPFYDKPMQIAYSKSDSDIVAKIKGTFKER
